Assay results as given in patent publication US8357523B2, “Beta-glucosidase variant enzymes and related polynucleotides” (Codexis, Inc., priority 2009, dated 2013).
Where a chain is given by its changes, count along the chain named.

Experiment: High throughput cellobiose assay: fold improvement in cellobiase activity of CelA variants over a control enzyme (Tables 2A-2D, 3, 5, 6, 7)
Assay type: biochemical
Conditions: 3.3 g/l cellobiose, 65° C. and pH 5 (incubation overnight); relative to Control #5, Variant No. 366 (SEQ ID NO: 9)

B1: 399 (protein)
chain: SARITQEGAAPAAMLHPEKWPRPATQRLIDPAVEKRVDALLKQLSVEEKVGQVIQGDIGTITPEDLRKYPLGSILAGGDSGPNGDDRAPPKEWLDLADAFYRVSLEKRDGHTPIPVLFGIDAVHGHNNIGSATIFPHNIALGMTRDPELLRRIGEVTAEEMAATGIDWTFAPALSVPRDDRWGRTYEGFSEDPEIVASYSAAIVEGFQGKYGSKDFMAPGRAVACAKHFLADGGTDQGRDQGDARISEDELIRIHNAGYPPAIDAGVLTVMASFSSWQGIKHHGHKQLLTDVLKGQMGFNGFIVGDWNAHDQVPGCTKFNCPTSLIAGLDMYMAADSWKQLYENTLAQVKDGTIPTARLDDAVRRILRVKVLAGLFEKPAPKDRPGLPGLETLGSPEHRAVGREAVRKSLVLLKNDKGTLPLSPKARVLVAGDGADNIGKQSGGWTISWQGTGNRNDEFPGATSILGGIRDAVADAGGSVEFDVAGQYKTKPDVAIVVFGEEPYAEFRGDVETLEYQPDQKQDLTLLKKLKDQGIPVVAVFLSGRPMWVNPELNASDAFVAAWLPGTEGGGVADVLFTDKAGKVQHDFAGKLSYSWPRTAAQTTVNRGDADYNPLFAYGYGLTYKDKSKVGTLPEESGVPAEARQNAGIYFRAGALRLPGRFL
modifications: truncated; signal peptide F-10T
With B1 the “Fold Improvement over Control Variant” value was “++ (++ = 1.1 to 2.0 fold improvement over control Variant No. 366)”.

B2: 400 (protein)
chain: B1 chain with R3A, D109P, P177V, I203Y, N646K
modifications: truncated; signal peptide F-10T
With B2 the “Fold Improvement over Control Variant” value was “++ (++ = 1.1 to 2.0 fold improvement over control Variant No. 366)”.

B3: 401 (protein)
chain: B1 chain with R3A, T25A, D109P, N128H, I203Y, T356M, T525S
modifications: truncated; signal peptide F-10T
In the case of B3, the “Fold Improvement over Control Variant” value is reported as “++ (++ = 1.1 to 2.0 fold improvement over control Variant No. 366)”.

B4: 402 (protein)
chain: B1 chain with A13P, D109P, P147T, I203Y, T356M, T525S, H586Y
modifications: truncated; signal peptide F-10T, K-21R
With B4 the “Fold Improvement over Control Variant” value was “++ (++ = 1.1 to 2.0 fold improvement over control Variant No. 366)”.

B5: 403 (protein)
chain: B1 chain with R3A, A13P, T356M
modifications: truncated; signal peptide F-10T
For B5, the “Fold Improvement over Control Variant” value was “++ (++ = 1.1 to 2.0 fold improvement over control Variant No. 366)”.

B6: 404 (protein)
chain: B1 chain with R3A, A13P, N128K, T356M, P597A
modifications: truncated; signal peptide F-10T
In the case of B6, the “Fold Improvement over Control Variant” value is reported as “++ (++ = 1.1 to 2.0 fold improvement over control Variant No. 366)”.

B7: 405 (protein)
chain: B1 chain with R3A, A13P, D109P, T356M, A400T, H586Y
modifications: truncated; signal peptide F-10T
With B7 the “Fold Improvement over Control Variant” value was “++ (++ = 1.1 to 2.0 fold improvement over control Variant No. 366)”.

B8: 406 (protein)
chain: B1 chain with A13P, D109P, P147T, E159G, T356M
modifications: truncated; signal peptide F-10T
With B8 the “Fold Improvement over Control Variant” value was “++ (++ = 1.1 to 2.0 fold improvement over control Variant No. 366)”.

B9: 407 (protein)
chain: B1 chain with R3A, P147T, T356M, E502N, H586Y
modifications: truncated; signal peptide F-10T
In the case of B9, the “Fold Improvement over Control Variant” value is reported as “+++ (+++ = 2.1 to 3.0 fold improvement over control Variant No. 366)”.

B10: 408 (protein)
chain: B1 chain with R3A, A13P, D109P, P147T, A226G, T356M, H586Y
modifications: truncated; signal peptide F-10T
With B10 the “Fold Improvement over Control Variant” value was “+++ (+++ = 2.1 to 3.0 fold improvement over control Variant No. 366)”.

B11: 409 (protein)
chain: B1 chain with R3A, P147T, T356M, T525S
modifications: truncated; signal peptide F-10T
For B11, the “Fold Improvement over Control Variant” value was “+++ (+++ = 2.1 to 3.0 fold improvement over control Variant No. 366)”.

B12: 410 (protein)
chain: B1 chain with R3A, D109P, T356M, E502N, T525S
modifications: truncated; signal peptide F-10T
For B12, the “Fold Improvement over Control Variant” value was “+++ (+++ = 2.1 to 3.0 fold improvement over control Variant No. 366)”.

B13: 411 (protein)
chain: B1 chain with R3A, D109P, T356M, L372S
modifications: truncated; signal peptide F-10T
With B13 the “Fold Improvement over Control Variant” value was “++ (++ = 1.1 to 2.0 fold improvement over control Variant No. 366)”.

B14: 412 (protein)
chain: B1 chain with R3A, D109P, T356M, E502N, R508Q
modifications: truncated; signal peptide F-10T
In the case of B14, the “Fold Improvement over Control Variant” value is reported as “+++ (+++ = 2.1 to 3.0 fold improvement over control Variant No. 366)”.

B15: 413 (protein)
chain: B1 chain with A13P, D109P, P147T, T356M, E502N, H586Y
modifications: truncated; signal peptide F-10T
For B15, the “Fold Improvement over Control Variant” value was “+++ (+++ = 2.1 to 3.0 fold improvement over control Variant No. 366)”.

B16: 414 (protein)
chain: B1 chain with D109P, P177V, I203Y, T356M, A400T, E502N, T525S
modifications: truncated; signal peptide F-10T
For B16, the “Fold Improvement over Control Variant” value was “++ (++ = 1.1 to 2.0 fold improvement over control Variant No. 366)”.

B17: 415 (protein)
chain: B1 chain with R3A, A13P, D109P, N128H, T356M, E502N, R508Q
modifications: truncated; signal peptide F-10T
For B17, the “Fold Improvement over Control Variant” value was “++ (++ = 1.1 to 2.0 fold improvement over control Variant No. 366)”.

B18: 416 (protein)
chain: B1 chain with R3A, D351E, T356M, H586Y
modifications: truncated; signal peptide F-10T
For B18, the “Fold Improvement over Control Variant” value was “++ (++ = 1.1 to 2.0 fold improvement over control Variant No. 366)”.

B19: 417 (protein)
chain: B1 chain with R3A, D109P, T356M, R508Q
modifications: truncated; signal peptide F-10T
In the case of B19, the “Fold Improvement over Control Variant” value is reported as “++ (++ = 1.1 to 2.0 fold improvement over control Variant No. 366)”.

B20: 418 (protein)
chain: B1 chain with A13P, D109P, P177V, I203Y, T356M, A400T
modifications: truncated; signal peptide F-10T, N-5H
In the case of B20, the “Fold Improvement over Control Variant” value is reported as “++ (++ = 1.1 to 2.0 fold improvement over control Variant No. 366)”.

B21: 419 (protein)
chain: B1 chain with P147T, T356M, H586Y
modifications: truncated; signal peptide F-10T
For B21, the “Fold Improvement over Control Variant” value was “++ (++ = 1.1 to 2.0 fold improvement over control Variant No. 366)”.

B22: 421 (protein)
chain: B1 chain with R3A, T356M, A400T, E502N, H586Y
modifications: truncated; signal peptide F-10T
In the case of B22, the “Fold Improvement over Control Variant” value is reported as “++ (++ = 1.1 to 2.0 fold improvement over control Variant No. 366)”.

B23: 422 (protein)
chain: B1 chain with R3A, A13P, D109P, P147T, T356M, A400T, E502N, R508Q
modifications: truncated; signal peptide F-10T
With B23 the “Fold Improvement over Control Variant” value was “+++ (+++ = 2.1 to 3.0 fold improvement over control Variant No. 366)”.

B24: 423 (protein)
chain: B1 chain with R3A, T356M, A400T
modifications: truncated; signal peptide F-10T
In the case of B24, the “Fold Improvement over Control Variant” value is reported as “++ (++ = 1.1 to 2.0 fold improvement over control Variant No. 366)”.

B25: 424 (protein)
chain: B1 chain with R3A, A13P, D109P, V204I, D291G, T356M
modifications: truncated; signal peptide F-10T
In the case of B25, the “Fold Improvement over Control Variant” value is reported as “++ (++ = 1.1 to 2.0 fold improvement over control Variant No. 366)”.

B26: 425 (protein)
chain: B1 chain with D109P, P147T, T356M, A400T, E502N
modifications: truncated; signal peptide F-10T
With B26 the “Fold Improvement over Control Variant” value was “+++ (+++ = 2.1 to 3.0 fold improvement over control Variant No. 366)”.

B27: 426 (protein)
chain: B1 chain with R3A, D109P, T356M, A400T
modifications: truncated; signal peptide F-10T
With B27 the “Fold Improvement over Control Variant” value was “++ (++ = 1.1 to 2.0 fold improvement over control Variant No. 366)”.

B28: 427 (protein)
chain: B1 chain with R3A, D109P, N128H, T356M, E502N, H586Y
modifications: truncated; signal peptide F-10T
In the case of B28, the “Fold Improvement over Control Variant” value is reported as “++ (++ = 1.1 to 2.0 fold improvement over control Variant No. 366)”.
